# Assays:
# Assay in all cases: MODified Histone Peptide Array
# [1] = target: H4 S1P (histone peptide array spots containing the mark); details: whole cell lysate from HEK293 cells transiently transfected; ECL plus western blot detecting reagent; parent: est. 5.3; read off a plot
# [2] = target: H2A K13ac (histone peptide array spots containing the mark); details: whole cell lysate from HEK293 cells transiently transfected; ECL plus western blot detecting reagent; read off a plot
# [3] = target: H4 K8ac (histone peptide array spots containing the mark); details: whole cell lysate from HEK293 cells transiently transfected; ECL plus western blot detecting reagent; parent: est. 10; read off a plot
# [4] = target: H4 K5ac (histone peptide array spots containing the mark); details: whole cell lysate from HEK293 cells transiently transfected; ECL plus western blot detecting reagent; parent: est. 9.4; read off a plot
# [5] = target: H4 K12ac (histone peptide array spots containing the mark); details: whole cell lysate from HEK293 cells transiently transfected; ECL plus western blot detecting reagent; parent: est. 8.1; read off a plot
# [6] = target: H4 R3me2s (histone peptide array spots containing the mark); details: whole cell lysate from HEK293 cells transiently transfected; ECL plus western blot detecting reagent; parent: est. 5.9; read off a plot
# [7] = target: H4 R3me2a (histone peptide array spots containing the mark); details: whole cell lysate from HEK293 cells transiently transfected; ECL plus western blot detecting reagent; parent: est. 5.9; read off a plot
# [8] = target: H2A K9ac (histone peptide array spots containing the mark); details: whole cell lysate from HEK293 cells transiently transfected; ECL plus western blot detecting reagent; read off a plot
# [9] = target: H4 R19me2s (histone peptide array spots containing the mark); details: whole cell lysate from HEK293 cells transiently transfected; ECL plus western blot detecting reagent; read off a plot
# [10] = target: H4 R24me2a (histone peptide array spots containing the mark); details: whole cell lysate from HEK293 cells transiently transfected; ECL plus western blot detecting reagent; read off a plot
substance,measurement,setting,value
BRD4-SF-FLAG (BRD4 short isoform with a single FLAG epitope tag at the C-terminus) (from UniProt O60885-2) Y433A,other: Specificity Factor,[1],3.4
same,other: Specificity Factor,[2],4.5
same,other: Specificity Factor,[3],13
same,other: Specificity Factor,[4],11
same,other: Specificity Factor,[5],6.1
same,other: Specificity Factor,[6],5.5
same,other: Specificity Factor,[7],6.7
same,other: Specificity Factor,[8],4.4
same,other: Specificity Factor,[9],3.4
same,other: Specificity Factor,[10],3.9
